Source: patent US6861508B2, “Transcriptional intermediary factor-2” (Institut National de la Sante et de la Recherche Medicale, priority 1996, dated 2005)

What was measured:
[1] = test system: CBP (residues 1872 to 2165); experiment: GST-CBP pull-down of TIF2 polypeptides; assay type: binding
Procedure: (d) Mapping of the CBP-interacting domain of TIF2. GST puld own experiments were performed with ^35S-labeled in-vitro-translated TIF2 polypeptides and bacterially produced GST and GST-CBP (expressing CBP residues 1872 to 2165).
(c) Interaction of TIF2 AF-1 mutants with CBP in vitro. GST pull-down experiments were performed with ^35S-labeled in-vitro-translated GAL-TIF2 fusion proteins and bacterially produced GST and GST-CBP.
(c) Interaction of TIF2.13 wildtype and TIF2.13 mutants with CBP in vitro. GST pull-down experiments were performed with ^35S-labeled in-vitro-translated VP16-TIF2.13 polypeptides and bacterially produced GST and GST-CBP.
(§1) Furthermore, it was reported that SRC-1, which belongs to the same gene family as TIF2, interacts with CBP and p300 (Kamei, Y. et al., Cell 85:403-414 (1996); Yao, T. P. et al., Proc. Natl. Acad. Sci. USA 93:10626-10631 (1996); Hanstein, B., et al., Proc. Natl. Acad Sci USA 93:11540-11545 (1996)). Using GST-fusion protein-based interaction and animal cell-based two hybrid assays, we therefore analyzed whether TIF2 could also interact with CBP. […] A GST-CBP fusion protein was expressed in E. coli and used for puU-down assays with in vitro translated TIF2 polypeptides (FIG. 7d).

GAL-CBP = experiment: two hybrid analysis of CBP-TIF2 interaction in HeLa cells; assay type: cell-based
Procedure: (e) Two hybrid analysis of the CBP-TIF2 interaction in mammalian cells in vivo. HeLa cells were transfected with 0.2 μg of the GAL4 or GALA-CBP (expressing CBP residues 1872 to 2165) expression vectors together with 0.2 μg of the VP16 or VPI6-TF2 expression vectors in the presence of 2 μg of (17m)5-TATA-CAT reporter plasmid. Fold induction relative to the GAL-CBP activity is indicated. The mean of three experiments is shown; in each case, values varied by less than ±20%.
HeLa cells were transfected with 0.2 μg of GAL4 or GAL-CBP expression vectors together with 0.2 μg of VP16 or VP16-TIF2.13 expression vectors in the presence of 1 μg of (17m)5-TATA-CAT reporter plasmid. Data are represented as fold induction of the activity seen with GAL-CBP alone. The mean and standard, deviation obtained from ten experiments are shown. The expression levels were confirmed by Western blotting with antibodies directed against GAL4 DBD and VP16 AAD (data not shown).
as §1

[2] = biological target: T1, GST-hERα(DEF) (pGEX2T-hERα(DEF), amino acids 282-595) (human, UniProt P03372 282-595); experiment: GST pull-down with 35S in-vitro-translated TIF2 polypeptides, with or without 10^-6 M estradiol
T1 construct: range 282-595; Bacterially produced; also used 32P-labelled as Far-Western probe; also called GST-ER; GST-ER(DEF); not shown: glutathione-S-transferase (GST) of pGEX2T (Pharmacia)
T1 sequence (looked up): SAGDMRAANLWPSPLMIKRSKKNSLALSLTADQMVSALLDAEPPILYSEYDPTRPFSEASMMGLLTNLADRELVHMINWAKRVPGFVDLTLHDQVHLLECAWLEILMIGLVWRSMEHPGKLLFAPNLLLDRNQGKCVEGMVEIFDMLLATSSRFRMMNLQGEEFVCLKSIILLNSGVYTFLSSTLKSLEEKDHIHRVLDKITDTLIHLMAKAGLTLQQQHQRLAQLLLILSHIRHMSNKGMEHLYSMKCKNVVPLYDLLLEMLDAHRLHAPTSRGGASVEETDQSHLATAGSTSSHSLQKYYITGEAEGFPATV

[3] = biological target: T2, GST-hRARα(DEF) (pGEX2T-hRARα(DEF), amino acids 153-462) (human, UniProt P10276 153-462); experiment: GST pull-down with 35S in-vitro-translated TIF2 polypeptides, with or without 10^-6 M all-trans-retinoic acid
T2 construct: range 153-462; Bacterially produced; also called GST-RAR; GST-RARα(DEF); not shown: glutathione-S-transferase (GST) of pGEX2T (Pharmacia)
T2 sequence (looked up): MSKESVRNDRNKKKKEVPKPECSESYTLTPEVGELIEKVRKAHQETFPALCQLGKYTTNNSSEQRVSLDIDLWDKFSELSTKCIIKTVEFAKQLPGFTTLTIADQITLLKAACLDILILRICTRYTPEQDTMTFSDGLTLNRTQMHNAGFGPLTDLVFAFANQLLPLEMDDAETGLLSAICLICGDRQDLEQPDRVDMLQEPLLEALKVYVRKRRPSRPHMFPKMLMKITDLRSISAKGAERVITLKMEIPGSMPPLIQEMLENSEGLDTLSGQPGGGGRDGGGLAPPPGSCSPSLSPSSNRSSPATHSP

binding to GST-CBP in vitro [1]: did not show any binding
binding result [2]: no binding
binding result [3]: no binding
B1: TIF2.2 (TIF2 amino acids 1288-1464) (other)
chain: NPRIPQANAQQFPFPPNYGISQQPDPGFTGATTPQSPLMSPRMAHTQSPMMQQSQANPAYQAPSDINGWAQGNMGGNSMFSQQSPPHFGQQANTSMYSNNMNINVSMATNTGGMSSMNQMTGQISMTSVTSVSTSGLSSMGPEQVNDPALRGGNLFPNQLPGMDMIKQEGDTTRKYC
notes: In-vitro-translated; also called AD2
interaction with GAL-CBP, two hybrid (GAL-CBP): not
